Results reported in patent US20140221623A1 (Ablynx, published 2014).
Numbering of substitutions follows the chain as printed. Several values for one entry are separate records, joined by “and”; a condition that tells them apart may be missing. Identical values can stand only once.

B1: IL6R02 (VHH)
VHH: EVQLVESGGGLVQAGGSLRLSCAASGRTFSSYDMGWYRQAPGKEREFVAVISRSGSSTYYADSVKGRFTISRDNAKNTVYLQMNSLKPEDTAIYYCKAEVVAGDYDYWGQGTQVTVSS
notes: also called PMP30C11; PMP 30 C11
B2: IL6R11 (VHH)
VHH: EVQLVESGGGLVQAGGSLRLSCAASGFTFDDYAIGWFRQAPGKEHEGVSCISSSDGSTYYADSVKGRFTISSDNAKNTVYLQMNSLKPEDTAVYYCAAERDVPARSLCGSYYWYDYRGQGTQVTVSS
notes: also called PMP35E11; PMP 35 E11
B3: IL6R12 (VHH)
VHH: EVQLVESGGGLVQAGGSLRLSCAASGRTFSSYDMGWYRQAPGKEREFVAIITWNSSTYYADSVKGRFTISRDNAKNTVYLQMNSLKPEDTAIYYCNAQYGLGYAEDYWGQGTQVTVSS
notes: also called PMP35F4; PMP 35 F4
B4: Reference Fab (Fab, V domains shown)
VH: QVQLQESGPGLVRPSQTLSLTCTVSGYSITSDHAWSWVRQPPGRGLEWIGYISYSGITTYNPSLKSRVTMLRDTSKNQFSLRLSSVTAADTAVYYCARSLARTTAMDYWGQGSLVTVSS
VL: DIQMTQSPSSLSASVGDRVTITCRASQDISSYLNWYQQKPGKAPKLLIYYTSRLHSGVPSRFSGSGSGTDFTFTISSLQPEDIATYYCQQGNTLPYTFGQGTKVEIKR
notes: Anti-human IL-6R Fab according to EP 0 628 639, made in E. coli periplasm; also called Tocilizumab-Fab
B5: IL6R10 (VHH)
VHH: EVQLVESGGGLVQAGGSLRLSCAASGRTFSSYDMGWYRQAPGKEREFVAVIHWSSGSTYYADPVKGRFTISRDNAKNTVYLQMNSLKPEDTAIYYCNAFLPGPEGFHDYWGQGTQVTVSS
notes: also called PMP35C10; PMP 35 C10
B6: IL6R05 (VHH)
VHH: EVQLVESGGGLVQPGGSLRLSCAASGFTFGSYDMSWVRQAPGKGPEWVSAINSGGGSTYYADSVKGRFTISRDNAKNTLYLQMNSLKPEDTAVYYCATDWRYSDYDLPLPPPGDYWGQGTQVTVSS
notes: also called PMP32E10; PMP 32 E10
B7: IL6R07 (VHH)
VHH: EVQLVESGGGLVQPGGSLRLSCAASGFTLDYGAIGWFRQAPGKEREGVSCISSSTGSTYYADSVKGRFTISRDNGKNTVYLQMNSLKPEDTAVYYCAADKMWSPCLVAANEEALFEYDYWGQGTQVTVSS
notes: also called PMP33A3; PMP 33 A3
B8: IL6R08 (VHH)
VHH: EVQLVESGGGLVQPGGSLRLSCVASGFSLDYYVIGWFRQAPGKEREGVSCISSSDGSTYYADSVKGRFTISRDNAKNTVYLQMNSLKPEDTAVYYCAADLLRTPEFCVDSAPYDYWGQGTQVTVSS
notes: also called PMP34A12; PMP 34 A12
B9: PMP 28 F7 (VHH)
VHH: B6 VHH
notes: also called PMP28F7(t)
B10: PMP 28 H6 (VHH)
VHH: B6 VHH
notes: also called PMP28H6(t)
B11: PMP 31 B11 (VHH)
VHH: B6 VHH
notes: also called PMP31B11(t)
B12: PMP 31 B4 (VHH)
VHH: B6 VHH
notes: also called PMP31B4(t)
B13: PMP 31 C8 (VHH)
VHH: B6 VHH
notes: also called PMP31C8(t)
B14: PMP 31 F4 (VHH)
VHH: B6 VHH
notes: also called PMP31F4(t)
B15: PMP 32 H5 (VHH)
VHH: B6 VHH
notes: also called PMP32H5(t)
B16: PMP 30 G11 (VHH)
VHH: B8 VHH
notes: also called PMP30G11(t)
B17: PMP 30 A2 (VHH)
VHH: B8 VHH with V23A, S28T, S52G, G56D, V108T
notes: also called PMP30A2(t)
B18: PMP 30 B6 (VHH)
VHH: B8 VHH with V23A, S28T, G47A, S49A, G56R, V79G, V108S
notes: also called PMP30B6(t)
B19: PMP 34 C3 (VHH)
VHH: B8 VHH with Q118R
notes: also called PMP34C3(t)
B20: PMP 28 G3 (VHH)
VHH: EVQLVESGGGLVQAGGSLRLSCTASGNIFSTETMGWYRQPPGKQRDVVATITHGGTTNYADSVKGRFTISRDNRKNTVYLQMNSLKPEDTGVYYCNARSSWYSPEYWGQGTQVTVSS
B21: PMP 34 C11 (VHH)
VHH: EVQLVESGGGLVQPGGSLRLSCAAAGFTLDYSAIGWFRQAPGKEREMFSCISGSDGSTWYADSVAGRFTISFDNAKNTVYLQMNSLKPEDTGLYICAVTGGVRGPCAYEYEYWGQGTQVTVSS
B22: PMP 34 D2 (VHH)
VHH: EVQLVESGGGLVQPGGSLRLSCAASGFTLDYFAIGWFRQAPGKERERVSCISSSDGSTYYADSVKGRFTISRDNAKNTVYLQMNSLKPEDTAVYYCATDRSVYYCSGGAPEEYYWGQGTQVTVSS
notes: also called PMP34D2(t)
B23: PMP 30 B1 (VHH)
VHH: B22 VHH with F32Y, F37W, E44G, R47G, S54G, Y59N
notes: also called PMP30B1(t)
B24: PMP 33 G3 (VHH)
VHH: B22 VHH with D30G, R47G, T58A, I70V
notes: also called PMP33G3(t)
B25: PMP 34 A5 (VHH)
VHH: B22 VHH with D30G, R47G, I70V
notes: also called PMP34A5(t)
B26: PMP 34 E9 (VHH)
VHH: B22 VHH with F32Y, R47G, V93A, G108D
notes: also called PMP34E9(t)
B27: PMP 34 G3 (VHH)
VHH: B22 VHH with F32Y, V93A
B28: PMP 34 E10 (VHH)
VHH: EVQLVESGGGLVQAGGSLRLSCAASGRTFSSYAMGWGRQAPGKEREFVATISWSGGSTYYADSVKGRFTISRDNAKNTVYLQMNSLKPEDTAVYYCAADLAEFKYSDYADYWGQGTQVTVSS
B29: PMP 28 B1 (VHH)
VHH: EVQLVESGGGLVQPGGSLRLSCAASGFTLNYYAIGWFRQAPGKEREGVSCISSSDGSTYYADSVKGRFTISRDNAKNTFYLQMNSLKPEDTAVYYCAAEGLGDSDSPCGAAWYNDYWGQGTQVTVSS
notes: also called PMP28B1(t)
B30: IL6R01 (VHH)
VHH: EVQLVESGGGFVQAGGSLRLSCIASGDNFSINRMGWYRQALGKQRELVAIITNHGSTNYADAVKGRFTISRDYAKNTVYLQMNGLKPDDTAVYYCNAYISEVGTWRDDYWGQGIQVTVSS
notes: also called PMP28E11; PMP 28 E11

Each binder was assayed against T1, IL6-R on U266 cells (human, UniProt P08887 20-468) (assay: cell-based or functional assay).
T1 sequence (looked up): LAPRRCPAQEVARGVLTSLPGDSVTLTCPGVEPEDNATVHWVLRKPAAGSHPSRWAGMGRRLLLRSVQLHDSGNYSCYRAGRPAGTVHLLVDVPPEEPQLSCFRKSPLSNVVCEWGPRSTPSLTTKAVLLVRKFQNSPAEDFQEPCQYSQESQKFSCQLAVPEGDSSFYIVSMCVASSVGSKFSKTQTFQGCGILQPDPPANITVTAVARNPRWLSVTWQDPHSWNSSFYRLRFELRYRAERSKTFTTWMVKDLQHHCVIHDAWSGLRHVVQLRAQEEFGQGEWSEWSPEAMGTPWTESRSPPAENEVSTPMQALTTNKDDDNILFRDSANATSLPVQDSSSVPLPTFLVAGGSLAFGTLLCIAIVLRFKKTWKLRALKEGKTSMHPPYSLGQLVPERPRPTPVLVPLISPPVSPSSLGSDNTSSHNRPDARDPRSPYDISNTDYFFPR
In the case of B1, the “IC50, XG-1 proliferation” value is reported as 31 nM.
B2 was tested, and the “IC50, XG-1 proliferation” value was 5.37 nM.
B3 was tested, and the “IC50, XG-1 proliferation” value was 2.75 nM.
With B4 the “IC50, XG-1 proliferation” value was 5.99 nM.
B5 was tested, and the “IC50, XG-1 proliferation” value was 2.55 nM.
In the case of B6, the “IC50, XG-1 proliferation” value is reported as 7.29 nM.
B7 was tested, and the “IC50, XG-1 proliferation” value was 50.5 nM.
With B8 the “IC50, XG-1 proliferation” value was 36.6 nM.

Target: T1, IL6-R on U266 cells
Experiment: cell-based or functional assay
Remark: another data set of the same source
With B1 the “IC50, TF-1 proliferation” value was 29.7 nM.
For B2, the “IC50, TF-1 proliferation” value was 6.62 nM.
With B3 the “IC50, TF-1 proliferation” value was 6.92 nM.
B5 was tested, and the “IC50, TF-1 proliferation” value was 9.15 nM.
With B6 the “IC50, TF-1 proliferation” value was 19.9 nM.
With B7 the “IC50, TF-1 proliferation” value was 35 nM.
For B8, the “IC50, TF-1 proliferation” value was 42.9 nM.

These binders were tested against T2, Human soluble IL6-R (human, UniProt P08887 20-358) (assay: SPR (Biacore), off-rate).
T2 construct: Bought soluble receptor; biotinylated in some Alphascreen assays; also called sIL6-R; hIL-6R
T2 sequence (looked up): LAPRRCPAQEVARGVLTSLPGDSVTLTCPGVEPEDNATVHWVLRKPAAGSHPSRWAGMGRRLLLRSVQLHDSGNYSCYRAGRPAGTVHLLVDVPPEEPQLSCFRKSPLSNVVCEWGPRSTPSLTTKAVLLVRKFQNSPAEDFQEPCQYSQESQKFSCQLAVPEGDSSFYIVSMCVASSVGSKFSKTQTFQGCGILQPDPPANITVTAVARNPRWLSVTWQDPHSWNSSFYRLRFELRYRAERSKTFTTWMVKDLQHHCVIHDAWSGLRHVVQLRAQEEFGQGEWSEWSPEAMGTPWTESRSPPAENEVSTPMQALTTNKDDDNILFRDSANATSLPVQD
With B1 the koff was 0.00294 s⁻¹.
Binder B2 has a koff of 0.000417 s⁻¹.
Binder B3 has a koff of 0.000896 s⁻¹.
B5 showed a koff of 0.000509 s⁻¹.
With B6 the koff was 0.00127 s⁻¹.
B7 gave a koff of 0.000242 s⁻¹.
For B9, the koff was 0.00126 s⁻¹.
For B10, the koff was 0.00247 s⁻¹.
B11 was tested, and the koff was 0.00124 s⁻¹.
In the case of B12, the koff is reported as 0.00128 s⁻¹.
Binder B13 has a koff of 0.00125 s⁻¹.
For B14, the koff was 0.00123 s⁻¹.
B15 was tested, and the koff was 0.00128 s⁻¹.
B16 was tested, and the koff was 0.00164 s⁻¹.
With B17 the koff was 0.00257 s⁻¹.
B18 showed a koff of 0.000842 s⁻¹.
Binder B19 has a koff of 0.000435 s⁻¹.
B20 showed a koff of 0.00193 s⁻¹.
With B21 the koff was 0.00367 s⁻¹.
B22 showed a koff of 0.000331 s⁻¹.
In the case of B23, the koff is reported as 0.001 s⁻¹.
B24 gave a koff of 0.00119 s⁻¹.
In the case of B25, the koff is reported as 0.00168 s⁻¹.
Binder B26 has a koff of 0.000503 s⁻¹.
With B27 the koff was 0.00014 s⁻¹.
B28 showed a koff of 0.002 s⁻¹.
Work on B29 yielded a koff of 0.00134 s⁻¹.

What follows are binders tested against T2, Human soluble IL6-R (assay: SPR (Biacore 3000), IL6-R on CM5 chip).
With B1 the Kd was 5.9 nM, the koff was 0.00294 s⁻¹ and 0.00495 s⁻¹ and the kon was 840000 M⁻¹ s⁻¹.
With B2 the Kd was 0.87 nM and 1.85 nM, the koff was 0.00034 s⁻¹ and 0.000396 s⁻¹ and 0.000417 s⁻¹ and the kon was 391000 M⁻¹ s⁻¹ and 215000 M⁻¹ s⁻¹.
With B3 the Kd was 1.71 nM, the koff was 0.00116 s⁻¹ and 0.000896 s⁻¹ and the kon was 678000 M⁻¹ s⁻¹.
B4 was tested, and the Kd was 0.86 nM, the koff was 0.00066 s⁻¹ and the kon was 768000 M⁻¹ s⁻¹.
For B5, the Kd was 1.27 nM, the koff was 0.000526 s⁻¹ and 0.000509 s⁻¹ and the kon was 414000 M⁻¹ s⁻¹.
B6 was tested, and the Kd was 9.79 nM, the koff was 0.00141 s⁻¹ and 0.00127 s⁻¹ and the kon was 144000 M⁻¹ s⁻¹.
Binder B7 has a koff of 0.000242 s⁻¹.
B8 showed a Kd of 10.2 nM, a koff of 0.00197 s⁻¹ and a kon of 194000 M⁻¹ s⁻¹.
B30 showed a Kd of 0.418 nM, a koff of 0.00011 s⁻¹ and a kon of 262000 M⁻¹ s⁻¹.

These binders were tested against T2, Human soluble IL6-R (assay: Alphascreen, 100 nM Nanobody; competitor Reference-Fab on beads).
With B1 the “% binding retained in competition with Reference-Fab” value (“% binding retained in competition” for short) was 86%.
B2 was tested, and the “% binding retained in competition” value was 40%.
In the case of B3, the “% binding retained in competition” value is reported as 103%.
In the case of B5, the “% binding retained in competition” value is reported as 102%.
In the case of B6, the “% binding retained in competition” value is reported as 64%.
With B7 the “% binding retained in competition” value was 80%.
In the case of B8, the “% binding retained in competition” value is reported as 99%.
With B30 the “% binding retained in competition” value was 49%.
